Tests used:
Test in all cases: SPR
ADI-56046 (human) = target: ADI-56046 (human)
P2B-2F6 (human) = target: P2B-2F6 (human)
B38 (human) = target: B38 (human)
CB6 (human) = target: CB6 (human)
P17 (human) = target: P17 (human)
C105 (human) = target: C105 (human)

SARS-CoV-2 Omicron BA.1.1 RBD protein with His-tag, spike residues 319-541 (from UniProt P0DTC2 319-541) (domain or fragment)
Kd (ADI-56046 (human)): 1500 nM

SARS-CoV-2 Omicron BA.2 RBD protein with His-tag, spike residues 319-541 (from UniProt P0DTC2 319-541) (domain or fragment)
Kd (P2B-2F6 (human)): 5100 nM

SARS-CoV-2 Omicron BA.1 RBD protein with His-tag, spike residues 319-541 (from UniProt P0DTC2 319-541) (domain or fragment)
Kd (ADI-56046 (human)): 2300 nM

SARS-CoV-2 Omicron BA.3 RBD protein with His-tag, spike residues 319-541 (from UniProt P0DTC2 319-541) (domain or fragment)
Kd (B38 (human)): > 500 nM
Kd (CB6 (human)): > 500 nM
Kd (P17 (human)): 3500 nM
Kd (ADI-56046 (human)): 18000 nM
Kd (C105 (human)): > 500 nM
